Patent publication US7754689B2, “Finger-1 peptide analogs of the TGF-β superfamily” (Wyeth LLC, priority 2006, dated 2010)
Values belong to the binder of their own block, whether it stands above or below them. No end group written: not given here.

How the values were obtained:
BMP-12 [1] = target: T1, BMP-12 (UniProt Q7Z4P5 322-450, limits assumed); test: peptide resin, filter plate; load 1: 50 mM Acetic Acid, 0.1 M NaCl, pH 2.9
T1 construct: also called BMP12/GDF7
T1 sequence (looked up): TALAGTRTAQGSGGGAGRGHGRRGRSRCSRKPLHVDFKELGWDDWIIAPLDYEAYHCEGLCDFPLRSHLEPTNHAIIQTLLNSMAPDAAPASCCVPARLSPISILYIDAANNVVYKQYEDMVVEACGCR
Protocol: (§1) The coupled resins, plus an unconjugated resin for use as a control, were suspended in 16% ethanol, 150 mM NaCl, and 20 mM Tris buffer at pH 7.5 at a 25% v/v ratio (e.g., 25% ethanol, 75% Tris buffer). A Tecan liquid-handling robot was employed to aliquot 200 μL of each slurry into one of eight rows of a 96 well polystyrene filter plate (0.45 μm hydrophilic filters, Whatman catalog number 770-1806). Spinning at 1200 g for 3 min removed the liquid phase, leaving 50 μL of wet resin on the filters. The resins were then equilibrated with the loading buffers listed in Table 6 (K is a coefficient characterizing the strength of protein binding to a particular resin in a particular buffer). […] The resins were loaded by transferring 150 μL from the load plate to the filter plate and then incubating 20 min on a shaking platform to facilitate binding. The filter plate was spun down and the filtrate collected in a 96 well UV plate. The protein concentration in the filtrate, or flow-through, was calculated as $(A280-A320)/1.3$. The filter plate was then washed with 150 μL of 100 mM acetic acid, followed by 150 μL of 4M guanidine-HCl and 50 mM sodium acetate at pH 4.0. The protein concentration was measured in the new filtrate as described above. […] Flow-through and acetic acid elution samples from column 4 of the plate (loaded with MES pH 6) were analyzed on a gel (FIG. 14).

BMP-12 [2] = target: T1, BMP-12; test: peptide resin, filter plate; load 4: 25 mM MES pH 6.0
Protocol: as §1

BMP-12 [3] = target: T1, BMP-12; test: peptide resin, filter plate; load 12: 50 mM Tris, 0.1 M NaCl, 20% MPD, pH 8.0
Protocol: as §1

BMP-12 [4] = target: T1, BMP-12; test: peptide resin, filter plate; load 6: 1M CHES pH 9.7
Protocol: as §1

BMP-12 [5] = target: T1, BMP-12; test: peptide resin, filter plate; load 10: 50 mM Tris, 0.1 M NaCl, 40% MPD, pH 8.0
Protocol: as §1

BMP-12 [6] = target: T1, BMP-12; test: peptide resin, filter plate; load 11: 50 mM Tris, 0.25 M NaCl, 30% MPD, pH 8.0
Protocol: as §1

BMP-12 [7] = target: T1, BMP-12; test: peptide resin, filter plate; load 5: 25 mM HEPES pH 7.0
Protocol: as §1

BMP-12 [8] = target: T1, BMP-12; test: peptide resin, filter plate; load 3: 25 mM Na Acetate pH 5.0
Protocol: as §1

BMP-12 [9] = target: T1, BMP-12; test: peptide resin, filter plate; load 2: 50 mM Acetic Acid, 0.1 M NaCl, pH 4.0
Protocol: as §1

100 mM HAc elution K (BMP-12 [1]): 1
100 mM HAc elution conc (BMP-12 [1]): 0.058 mg/mL
4M Gnd, 50 mM NaAc pH 4 Strip Conc (BMP-12 [1]): 0.024 mg/ml
Flow-through K (BMP-12 [1]): 1
Flow-through conc (BMP-12 [1]): 0.397 mg/mL
100 mM HAc elution K (BMP-12 [2]): -1
100 mM HAc elution conc (BMP-12 [2]): 0.104 mg/mL
4M Gnd, 50 mM NaAc pH 4 Strip Conc (BMP-12 [2]): 0.027 mg/ml
Flow-through K (BMP-12 [2]): 0
Flow-through conc (BMP-12 [2]): 0.426 mg/mL
Flow-through K (BMP-12 [3]): 0
Flow-through conc (BMP-12 [3]): 0.435 mg/mL
Flow-through K (BMP-12 [4]): -1
Flow-through conc (BMP-12 [4]): 0.626 mg/mL
Flow-through K (BMP-12 [5]): 0
Flow-through conc (BMP-12 [5]): 0.464 mg/mL
Flow-through K (BMP-12 [6]): 0
Flow-through conc (BMP-12 [6]): 0.431 mg/mL
100 mM HAc elution K (BMP-12 [7]): 0
100 mM HAc elution conc (BMP-12 [7]): 0.077 mg/mL
4M Gnd, 50 mM NaAc pH 4 Strip Conc (BMP-12 [7]): 0.021 mg/ml
Flow-through K (BMP-12 [7]): 1
Flow-through conc (BMP-12 [7]): 0.397 mg/mL
100 mM HAc elution K (BMP-12 [8]): 0
100 mM HAc elution conc (BMP-12 [8]): 0.073 mg/mL
4M Gnd, 50 mM NaAc pH 4 Strip Conc (BMP-12 [8]): 0.026 mg/ml
Flow-through K (BMP-12 [8]): 1
Flow-through conc (BMP-12 [8]): 0.407 mg/mL
100 mM HAc elution K (BMP-12 [9]): 1
100 mM HAc elution conc (BMP-12 [9]): 0.057 mg/mL
4M Gnd, 50 mM NaAc pH 4 Strip Conc (BMP-12 [9]): 0.026 mg/ml
Flow-through K (BMP-12 [9]): 1
Flow-through conc (BMP-12 [9]): 0.41 mg/mL
B1: BMP2 N-trunc_2 peptide 745 (peptide)
peptide: Ac-VAPPGYHAFYSHGEK

100 mM HAc elution K (BMP-12 [1]): 1
100 mM HAc elution conc (BMP-12 [1]): 0.096 mg/mL
4M Gnd, 50 mM NaAc pH 4 Strip Conc (BMP-12 [1]): 0.044 mg/ml
Flow-through K (BMP-12 [1]): 1
Flow-through conc (BMP-12 [1]): 0.337 mg/mL
100 mM HAc elution K (BMP-12 [2]): 1
100 mM HAc elution conc (BMP-12 [2]): 0.311 mg/mL
4M Gnd, 50 mM NaAc pH 4 Strip Conc (BMP-12 [2]): 0.06 mg/ml
Flow-through K (BMP-12 [2]): 36
Flow-through conc (BMP-12 [2]): 0.037 mg/mL
Flow-through K (BMP-12 [3]): 1
Flow-through conc (BMP-12 [3]): 0.364 mg/mL
Flow-through K (BMP-12 [4]): -1
Flow-through conc (BMP-12 [4]): 0.577 mg/mL
Flow-through K (BMP-12 [5]): 0
Flow-through conc (BMP-12 [5]): 0.423 mg/mL
Flow-through K (BMP-12 [6]): 1
Flow-through conc (BMP-12 [6]): 0.342 mg/mL
100 mM HAc elution K (BMP-12 [7]): 0
100 mM HAc elution conc (BMP-12 [7]): 0.187 mg/mL
4M Gnd, 50 mM NaAc pH 4 Strip Conc (BMP-12 [7]): 0.046 mg/ml
Flow-through K (BMP-12 [7]): 2
Flow-through conc (BMP-12 [7]): 0.29 mg/mL
100 mM HAc elution K (BMP-12 [8]): 1
100 mM HAc elution conc (BMP-12 [8]): 0.226 mg/mL
4M Gnd, 50 mM NaAc pH 4 Strip Conc (BMP-12 [8]): 0.072 mg/ml
Flow-through K (BMP-12 [8]): 6
Flow-through conc (BMP-12 [8]): 0.163 mg/mL
100 mM HAc elution K (BMP-12 [9]): 2
100 mM HAc elution conc (BMP-12 [9]): 0.194 mg/mL
4M Gnd, 50 mM NaAc pH 4 Strip Conc (BMP-12 [9]): 0.087 mg/ml
Flow-through K (BMP-12 [9]): 6
Flow-through conc (BMP-12 [9]): 0.164 mg/mL
B2: BMP2 N-trun peptide 750 (peptide)
peptide: Ac-SDVGWNDWIVAPPGYHAFYCHGEK

100 mM HAc elution K (BMP-12 [1]): 3
100 mM HAc elution conc (BMP-12 [1]): 0.154 mg/mL
4M Gnd, 50 mM NaAc pH 4 Strip Conc (BMP-12 [1]): 0.135 mg/ml
Flow-through K (BMP-12 [1]): 7
Flow-through conc (BMP-12 [1]): 0.15 mg/mL
100 mM HAc elution K (BMP-12 [2]): 1
100 mM HAc elution conc (BMP-12 [2]): 0.32 mg/mL
4M Gnd, 50 mM NaAc pH 4 Strip Conc (BMP-12 [2]): 0.07 mg/ml
Flow-through K (BMP-12 [2]): 47
Flow-through conc (BMP-12 [2]): 0.029 mg/mL
Flow-through K (BMP-12 [3]): 0
Flow-through conc (BMP-12 [3]): 0.486 mg/mL
Flow-through K (BMP-12 [4]): -1
Flow-through conc (BMP-12 [4]): 0.71 mg/mL
Flow-through K (BMP-12 [5]): 0
Flow-through conc (BMP-12 [5]): 0.505 mg/mL
Flow-through K (BMP-12 [6]): 0
Flow-through conc (BMP-12 [6]): 0.515 mg/mL
100 mM HAc elution K (BMP-12 [7]): 1
100 mM HAc elution conc (BMP-12 [7]): 0.249 mg/mL
4M Gnd, 50 mM NaAc pH 4 Strip Conc (BMP-12 [7]): 0.068 mg/ml
Flow-through K (BMP-12 [7]): 6
Flow-through conc (BMP-12 [7]): 0.162 mg/mL
100 mM HAc elution K (BMP-12 [8]): 1
100 mM HAc elution conc (BMP-12 [8]): 0.296 mg/mL
4M Gnd, 50 mM NaAc pH 4 Strip Conc (BMP-12 [8]): 0.1 mg/ml
Flow-through K (BMP-12 [8]): 18
Flow-through conc (BMP-12 [8]): 0.07 mg/mL
100 mM HAc elution K (BMP-12 [9]): 3
100 mM HAc elution conc (BMP-12 [9]): 0.208 mg/mL
4M Gnd, 50 mM NaAc pH 4 Strip Conc (BMP-12 [9]): 0.162 mg/ml
Flow-through K (BMP-12 [9]): 25
Flow-through conc (BMP-12 [9]): 0.052 mg/mL
B3: BMP2 C-trunc_2 peptide 746 (peptide)
peptide: Ac-LYVSDVGWNDWIVK
modifications: not fully specified (residue 3); printed as Ac-LYV**SDVGWNDWIVK; also: ** after V3 not explained
